Data taken from patent publication US7605150 (Stanford University, dated 2009).
*1 amine or outer side, *2 acyl side, *3 side chain or, on linkers, in order; H or OH if unused. Where no end group is shown, it is not given here. [ ]: non-standard residue; d: D form. Aci = acivicin, (2S)-amino[(5S)-3-chloro-4,5-dihydroisoxazol-5-yl]acetic acid, O=C([C@@H](N[*:1])[C@@H]1CC(Cl)=NO1)[*:2]; DON = [N-]=[N+]=CC(=O)CC[C@H](N)C(=O)O

What was measured:
Ac-PQPQLPF-NH2 = target: T1, Ac-PQPQLPF-NH2
T1 chain: PQPQLPF

PQPQLPY = target: T2, PQPQLPY
T2 chain: PQPQLPY

[1] = target: T3, recombinant human tissue transglutaminase (human, UniProt P21980 1-687, limits assumed); experiment: time-dependent inactivation of tTG (9 uM) by 0-600 uM inhibitor; residual activity by glutamate dehydrogenase-coupled assay at 340 nm; double-reciprocal plot
T3 construct: also called tTGase; tTG
T3 sequence (looked up): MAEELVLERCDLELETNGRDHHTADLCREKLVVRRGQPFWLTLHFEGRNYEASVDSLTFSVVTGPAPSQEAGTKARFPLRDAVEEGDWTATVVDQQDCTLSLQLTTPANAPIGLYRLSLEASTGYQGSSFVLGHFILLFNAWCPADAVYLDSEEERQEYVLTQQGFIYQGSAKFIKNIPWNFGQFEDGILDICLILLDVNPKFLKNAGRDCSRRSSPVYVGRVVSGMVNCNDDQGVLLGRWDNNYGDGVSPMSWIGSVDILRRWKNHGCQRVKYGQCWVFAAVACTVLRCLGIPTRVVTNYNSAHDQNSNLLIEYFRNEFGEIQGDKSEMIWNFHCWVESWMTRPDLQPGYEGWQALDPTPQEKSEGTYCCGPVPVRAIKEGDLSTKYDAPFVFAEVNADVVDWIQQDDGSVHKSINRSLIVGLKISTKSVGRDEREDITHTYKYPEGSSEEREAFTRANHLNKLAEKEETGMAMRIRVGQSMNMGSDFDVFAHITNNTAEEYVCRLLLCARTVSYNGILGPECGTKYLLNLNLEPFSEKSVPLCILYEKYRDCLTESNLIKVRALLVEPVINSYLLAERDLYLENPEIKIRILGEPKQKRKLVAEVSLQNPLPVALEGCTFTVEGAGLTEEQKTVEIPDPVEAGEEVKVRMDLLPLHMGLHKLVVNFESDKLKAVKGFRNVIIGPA

[2] = target: T3, recombinant human tissue …; experiment: time-dependent inactivation of tTG; residual activity by glutamate dehydrogenase-coupled assay at 340 nm; double-reciprocal plot

B1: recombinant human tissue transglutaminase (protein)
chain: T3 sequence (looked up)
- KM (Ac-PQPQLPF-NH2): 400 µM
- kcat (Ac-PQPQLPF-NH2): 0.667 s⁻¹
- kcat/KM (Ac-PQPQLPF-NH2): 97000 min^-1M^-1
- KM (PQPQLPY): 300 µM
- kcat (PQPQLPY): 0.467 s⁻¹

B2: Pro-Gln-Pro-Aci-Leu-Pro-Tyr (peptide)
peptide: PQP[Aci]LPY
notes: Free termini; also called PQPAciLPY; PQP-X-LPY with X = Aci
- Ki [1]: 780 µM

B3: Ac-Pro-Gln-Pro-Don-Leu-Pro-Phe-NH2 (peptide)
peptide: Ac-PQP[DON]LPF-NH2
SMILES: CC(=O)N1CCC[C@H]1C(=O)N[C@@H](CCC(N)=O)C(=O)N1CCC[C@H]1C(=O)N[C@@H](CCC(=O)C=[N+]=[N-])C(=O)N[C@@H](CC(C)C)C(=O)N1CCC[C@H]1C(=O)N[C@@H](Cc1ccccc1)C(N)=O
notes: here X = DON; also called Ac-PQP-X-LPF-NH2 with X = DON; compound 41
- Ki [2]: 0.07 µM
